Results reported in the supplement of paper PMC12042874.
± gives the uncertainty stated by the source.

Test: amyloid nucleation score (Sup35N fusion, yeast selection) (log enrichment); library NNK3; higher = more nucleation; inactive = no reads after selection
Method in brief: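 The nucleation score is a DiMSum log enrichment of output over input reads, centred on the mode score of non-aggregating sequences. Sequences under 100 input reads were excluded, and reads came from Illumina sequencing of plasmid inserts. Psi-negative yeast expressing Sup35N fused to peptides of 20 random codons were induced with 100 μM copper sulfate for 24 hours and grown 7 days at 30°C on medium lacking adenine and uracil. Random libraries had three technical output replicates.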

| Substance | amyloid nucleation score |
| --- | --- |
| SHECHSFLHVLFNVACSWGG | inactive |
| KCLMNFTVMRGASSCLEVPC | inactive |
| FTSYS | inactive |
| SYWLCEVMTLYFFNCFYVLG | inactive |
| LFLSMGYLDGFYPIRSISYL | inactive |
| SHRNTKKFMEWIFLYFIPTM | 0.064 ± 0.62 |
| TVFSCYSWELEMMLWDGSYM | inactive |
| MNYWHNYFSLYDHLLMSKCC | inactive |
| FIRIHRNAI | inactive |
| SVGVWKYFDLWAAGFLSSSG | inactive |
| LSMSYLMSVLLCDLQKVYNT | inactive |
| GLFCPVYS | inactive |
| RSSESNIICTTLRYLSVVVY | inactive |
| QIMILVCCQTGFWSERARRG | 2.98 ± 0.058 |
| FKITEYVSFNGTRPDNISMN | -0.082 ± 0.85 |
| VMHGFVGAAKSNWKNPWHRA | inactive |
| YYRLFLI | inactive |
| SVYDNYSLGNRYWERTFWLS | inactive |
| NNTDCYESNVVFFSTAIHLS | 1.6 ± 0.12 |
| NLAAEASVLVYEDELGCRHG | inactive |
| RNSRTVRRDLQINCR | inactive |
| RSKLYEISRIRKMGHPHTAE | inactive |
| DSVKSALRRGI | -0.166 ± 0.9 |

| Substance | amyloid nucleation score |
| --- | --- |
| SYFTMTDSSFSVAFANLLVY | 0.289 ± 0.78 |
| ICDKRWVC | inactive |
| FWIVSVTYFNCLVDWGEGCM | 2.05 ± 0.091 |
| TCFLRRFYWRYSGFYATAHY | inactive |
| HKLLGVTYYAV | inactive |
| AYVRLKRCWDTFWLRI | inactive |
| GSSRCNGRLWSAG | inactive |
| NGLLNRQSTSWWSTLNYCGD | inactive |
| NMYVNTSCIVYFE | 3 ± 0.058 |
| CRRVTKFESAFTWIFCKSCD | -0.013 ± 0.39 |
| SPTLPGCLVLEIINDNI | inactive |
| LISAYVGWDICLASML | inactive |
| CHDVLIKWNMVCTSVVEGEH | inactive |
| DGMFSFGSLCRYAELETSGK | inactive |
| KNSLDALFYVTALFCTLSGD | -0.122 ± 0.38 |
| VVMFSTPDIVDILSHVYRLG | inactive |
| SNVPYKDLQTLWCSHPVSVV | inactive |
| NRWTIPCFCGRKL | 1.12 ± 0.089 |
| RTGSHEMLIICFCVTSVL | inactive |
| CELANFKCLLGSQMFSEPLG | inactive |
| MCSRCVAKLATTPRLGFNDS | inactive |
| RYSEWPAD | inactive |
| WSTPWMWVRFGRIDHCSLGV | inactive |

| Substance | amyloid nucleation score |
| --- | --- |
| ETRFIYAFYFD | inactive |
| SCRIFDPMEPTTLCENSWSL | inactive |
| HWSHNLQFIFFYSYVGLANE | 1.96 ± 0.077 |
| FYGFGGISIRSGVVGIVDMK | inactive |
| VYCLAECYRIMRYAPFQVV | inactive |
| RCNGTL | inactive |
| MSKDFSRGVQLTDRCLLC | inactive |
| SHGLVIVRTKRPSNGFENGW | inactive |
| RVDSYVSMTYHIRWFFVRTE | inactive |
| MNSVHYNDHPHDAVKFTISI | inactive |
| FLVNFGKDFEIWREHYGVTI | -0.484 ± 1.4 |
| TVGQQWRPSRKLSSSSAIRN | inactive |
| NGFIILADCQMVCLRTSDLM | 1.77 ± 0.065 |
| GCIYK | inactive |
| IMSFVS | 0.031 ± 0.43 |
| RDVWDYSREHLYNDDFLIGA | -0.422 ± 0.75 |
| CPYLSSVLHDAQLKATFING | 1.11 ± 0.096 |
| VIFKKGLRLFTSSCDWSISD | inactive |
| IEHSQYPAQAKPRLGSCLVL | inactive |
| PQHADVAFVT | inactive |
| LVRRHSFSGYRRDT | inactive |
| IEWACVKQMYSHRALLRERR | inactive |
| LKIFKCI | inactive |

| Substance | amyloid nucleation score |
| --- | --- |
| LTVLSCTAQVDHGIAYCLEV | inactive |
| LHVYTSILWWTYKVDVWLLS | inactive |
| HLVADWQCHSDGFKSWLGNW | inactive |
| FLLFFILPSVRDLASHKSRG | 0.099 ± 0.19 |
| PKMSPSAMRSCDDLASPFIS | inactive |
| LMVASISNVQRRIVRVKLCD | inactive |
| APSYISRFVLLTDMPEAQTL | inactive |
| HWCTSKFIKPNGYPREERRV | inactive |
| SGFKG | inactive |
| RLCSFTRYLNGATSANNVKL | inactive |
| SPAQDQLAVRWVGVDRMMWW | -0.434 ± 0.86 |
| APPGFFIIVMSCWCYITRAL | inactive |
| NCQLLKLDSGSLSLCRWVHS | inactive |
| SWRRWSPCLIEVWHMFSLVT | inactive |
| CMAFLHPLF | inactive |
| HDAVLI | inactive |
| GYVVQIMFYILVVHTTWSSA | -0.451 ± 0.98 |
| YLNISILFNCVWDKVFFRYH | inactive |
| WKDWKLRPNY | inactive |
| SKKSDF | inactive |
| MVVIIFDWIPHLFNLYMYVI | inactive |
| EAKLVGGFTDFRELITNCLV | 1.01 ± 0.17 |
| SSDSVNLIRYLYVRPRFPIH | inactive |

| Substance | amyloid nucleation score |
| --- | --- |
| GVNVWRYLCH | inactive |
| GMFCNGINTNYVPVYYYRSV | 1.27 ± 0.17 |
| HWQYCLIFNQYVLKLCATHC | 1.04 ± 0.16 |
| EIQVV | inactive |
| PRLNMGCMLFSEYTYCQMIL | 1.1 ± 0.14 |
| DISPYFLYE | inactive |
| AFVNLYGKSARQSRQPMA | inactive |
| WLVSRIVHSLVVVIFDKDEG | inactive |
| GGRTM | inactive |
| PRGLVALGFGAFSKGPHGRS | inactive |
| NSMHAATWLEARRRLDKEGF | -0.753 ± 1.3 |
| FNFVLALI | 1.69 ± 0.084 |
| SITTEVFDSQVNKLRELDGW | inactive |
| CISKCLVNNV | inactive |
| LYDDHFYDWQGYVRRRILDS | inactive |
| FVPRPISNSAGIP | inactive |
| IWNSRSSCPECALATLETWA | inactive |
| CFMSLLNF | inactive |
| SWYGQLLCVTVVRYHCAPCG | inactive |
| VCSMWSSSSMIKLRALDDYM | inactive |
| KSYLAVVSYFGFTKKADPTG | inactive |
| PFPQWEKHYYFFAMNYFHFS | 1.75 ± 0.061 |
| FGRFVMERLTS | inactive |

| Substance | amyloid nucleation score |
| --- | --- |
| SYLPEFRCVVRFKFFQDKLL | inactive |
| FRNRCVNDD | inactive |
| SGQSNDCVMDVWMDM | inactive |
| RRTMFPAMIIS | inactive |
| VSANSMFIRGLIDSILAELA | inactive |
| CRFVNLFGCVGS | inactive |
| LDMQEPPVNAVRHYLSL | inactive |
| LFNLL | inactive |
| FYNFSTCVTRGWYVFMRC | inactive |
| IGCCFSVLKNLLFSFDVKQF | inactive |
| FTQYFLTRCDYYVEYYMLDR | inactive |
| ATVTWHYAAWTWLGFRPSSL | inactive |
| IPHAARLCLMWIILWLI | inactive |
| VSFNP | -0.32 ± 0.6 |
| GGCCAYCSLDLVWMFDDRSV | 2.16 ± 0.081 |
| RYGFCHYCYRVLDFDVDVRW | 0.881 ± 0.14 |
| YPWGEGNGYTCGV | inactive |
| RFGSVCPDL | inactive |
| MIMYIGVCVSVGLFEDYAYR | 0.044 ± 0.49 |
| SRRSSS | 1.28 ± 0.11 |
| FSNQSNFNMELLLKDRDSTP | inactive |
| FNYRFSLSHKNGFTRVNYGL | inactive |
| VGDHDPSRFCQDNLCLSRCL | inactive |

| Substance | amyloid nucleation score |
| --- | --- |
| RPRRTCWM | inactive |
| RRFIIPRAVAFTSL | inactive |
| GLMRDCTTAMIGENDAFWSD | inactive |
| FVLGGFLNKN | -0.11 ± 1.4 |
| FRHCWRR | -0.532 ± 1.1 |
| YNRLNRL | inactive |
| KSQYTSASP | inactive |
| RMNQIRLPGRCTY | inactive |
| KRKQVSFTH | inactive |
| IAVQLEILAY | inactive |
| SSWPICMPASQNLLLNIGLG | inactive |
| LRLVTMSYWPRYLLRRKCIR | inactive |
| EDFNRILVRNVRS | inactive |
| NLLDNRIFYHMD | inactive |
| SSCTLVKAGLVNFLRARYSG | inactive |
| KYMGAVFYIIHRTEERYF | 0.874 ± 0.13 |
| DRVFLQPTCYITAGYGFRVM | inactive |
| WLQISIEKTTKFPSKMNH | 1.58 ± 0.11 |
| CYSCSMLFISWLCRYRSTQY | 1.02 ± 0.12 |
| SIKSSISIFKYF | inactive |
| DILFDGESLFPYTENSWETR | inactive |
| LCWTVVIHVRTAVRIWLTSR | inactive |
